According to patent US20240117030A1 (Pfizer, published 2024):

T1: IL-33 (mm2), human IL-33 variant with all four cysteines changed to serine (human, UniProt O95760 112-270, limits assumed)
T1 sequence (looked up): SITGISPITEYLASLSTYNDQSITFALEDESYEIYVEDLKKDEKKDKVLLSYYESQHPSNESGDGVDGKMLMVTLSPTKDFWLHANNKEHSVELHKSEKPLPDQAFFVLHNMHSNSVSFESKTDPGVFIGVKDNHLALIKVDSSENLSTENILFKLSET

T2: human IL-4 (human, UniProt P05112 25-153)
T2 sequence (looked up): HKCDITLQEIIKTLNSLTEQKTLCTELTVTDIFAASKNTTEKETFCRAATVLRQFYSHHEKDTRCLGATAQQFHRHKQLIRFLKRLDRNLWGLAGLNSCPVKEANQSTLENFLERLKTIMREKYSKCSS


What was measured:
Test in all cases: cell-based or functional assay
[1] = biological target: T1, IL-33 (mm2), human IL-33 variant with …
human IL-13 = human IL-13 (human, UniProt P35225 35-146)
Sequence of human IL-13 (P35225 35-146 limits assumed): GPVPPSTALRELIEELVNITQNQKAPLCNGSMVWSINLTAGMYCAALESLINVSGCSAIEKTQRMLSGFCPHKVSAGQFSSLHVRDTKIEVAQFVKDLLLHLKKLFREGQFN

human IL-4 = biological target: T2, human IL-4

Binder | a-IL-33 bioassay cys mutant IL33) IC50 (pM) [1] | a-hIL-13 bioassay (IC50, pM) (human IL-13) | a-hIL-4 bioassay IC50, pM) (human IL-4)
IL13433-0005 (other) heavy: EVTLRESGPALVKPTQTLTLTCTFSGFSLSNFGEGLSWIRQPPGKGLEWLAHIYWDDDKRYNPSLKSRLTISKDTSRNQVVLTMTNMDPVDTATYYCARRETVFYWYFDVWGQGTTVTVSSASTKGPSVFPEAPSSKSTSGGTAALGCLVKDYFPEPVTVSWNSGALTSGVHTFPAVLQSSGLYSLGSVVTVPSSSLGTQTYICNVNHKPSNTKVDKKVEPKSCDKTHTCPPCPAPEAAGAPSVFLFPPKPKDTLMISRTPEVTCVVVDVSHEDPEVKFNWYVDGVEVHNAKTKPREEQYNSTYRVVSVLTVLHQDWLNGKEYKCKVSNKALPAPIEKTISKAKGQPREPQVYTLPPCREEMTKNQVSLSCAVKGFYPSDIAVEWESNGQPENNYKTTPPVLDSDGSFFLVSKLTVDKSRWQQGNVFSCSVMHEALHNHYTQKSLSLSPGK chain 1: DIQMTQSPSSLSASVGDRVTITCKASQNINKHLDWYQQKPGKAPKLLIYFTNNLQTGVPSRFSGSGSGTDFTLTISSLQPEDFATYYCFQYNQGWTFGGGTKVEIKRTVAAPSVFIFPPSDEQLKSGTASVVCLLNNFYPREAKVQWKVDNALQSGNSQESVTEQDSKDSTYSLSSTLTLSKADYEKHKVYACEVTHQGLSSPVTKSFNRGECGGGGSEVQLVESGGGLVQPGGSLRLSCAASGFTFSSYAMSWVRQAPGKGLEWVASISSGDTTYYPDSVKGRFTISRDNAKNSLYLQMNSLRAEDTAVYYCARNEGYYFGLTLWGQGTLVTVSSASTKGPSVFPKAPSSKSTSGGTAALGCLVKDYFPEPVTVSWNSGALTSGVHTFPAVLQSSGLYSLSSSVTVPSSSLGTQTYICNVNHKPSNTKVDKKVEPKSCDKTHTCPPCPAPEAAGAPSVFLFPPKPKDTLMISRTPEVTCVVVDVSHEDPEVKFNWYVDGVEVHNAKTKPREEQYNSTYRVVSVLTVLHQDWLNGKEYKCKVSNKALPAPIEKTISKAKGQPREPQVCTLPPSREEMTKNQVSLWCLVKGFYPSDIAVEWESNGQPENNYKTTPPVLDSDGSFFLYSKLTVDKSRWQQGNVFSCSVMHEALHNHYTQKSLSLSPGK light 1: DIQMTQSPSSLSASVGDRVTITCKASQSVDEDGDSYMNWYQQKPGKAPKLLIYAASNLESGVPSRFSGSGSGTDFTLTISSLQPEDFATYYCQQSNEDPPTFGGGTKVEIKRTVAAPSVFIFPPSDEQLKSGTASVSCLLNNFYPREAKVQWKVDNALQSGNSQESVTEQDSKDSTYSLKSTLTLSKADYEKHKVYACEVTHQGLSSPVTKSFNRGEC light 2: DIQMTQSPSSLSASVGDRVTITCKASESVDHFGWSLVHWYQQKPGKAPKLLIYRASNLESGVPSRFSGSGSGTDFTLTISSLQPEDFATYYCQQSNEDPWTFGGGTKVEIKRTVAAPSVFIFPPSDEQLKSGTASVSCLLNNFYPREAKVQWKVDNALQSGNSQESVTEQDSKDSTYSLDSTLTLSKADYEKHKVYACEVTHQGLSSPVTKSFNRGEC chain 2: EVQLVESGGGLVQPGGSLRLSCAASGFTFSSYWMYWVRQAPGKGLEWVAAITPNAGEDYYPESVKGRFTISRDNAKNSLYLQMNSLRAEDTAVYYCARGHYYYTSYSLGYWGQGTLVTVSSASTKGPSVFPLAPSSKSTSGGTAALGCLVKDYFPEPVTVSWNSGALTSGVHTFPAVLQSSGLYSLSSVVTVPSSSLGTQTYICNVNHKPSNTKVDKKVEPKSC | 45 pM | 12.5 pM | 3.2 pM
IL13433-0607 (other) heavy: EVQLVESGGGLVQPGGSLRLSCAASGFTFSSYAMSWVRQAPGKGLEWVASISTGDTTYYPDSVKGRFTISRDNAKNSLYLQMNSLRAEDTAVYYCARNEGYYFGLTQWGRGTLVTVSSASTKGPSVFPKAPSSKSTSGGTAALGCLVKDYFPEPVTVSWNSGALTSGVHTFPAVLQSSGLYSLSSSVTVPSSSLGTQTYICNVNHKPSNTKVDKKVEPKSCDKTHTCPPCPAPEAAGAPSVFLFPPKPKDTLMISRTPEVTCVVVDVSHEDPEVKFNWYVDGVEVHNAKTKPREEQYNSTYRVVSVLTVLHQDWLNGKEYKCKVSNKALPAPIEKTISKAKGQPREPQVCTLPPSREEMTKNQVSLWCLVKGFYPSDIAVEWESNGQPENNYKTTPPVLDSDGSFFLYSKLTVDKSRWQQGNVFSCSVLHEALHSHYTQKSLSLSPGK chain 1: DIQMTQSPSSLSASVGDRVTITCRASQPISKHLDWYQQKPGKAPKLLIYFTNNLQTGVPSRFSGSGSGTDFTLTISSLQPEDFATYYCFQYNQGWTFGGGTKVEIKRTVAAPSVFIFPPSDEQLKSGTASVVCLLNNFYPREAKVQWKVDNALQSGNSQESVTEQDSKDSTYSLSSTLTLSKADYEKHKVYACEVTHQGLSSPVTKSFNRGECGGGGSEVTLRESGPALVKPTQTLTLTCTFSGFSLSNFGEGLSWIRQPPGKGLEWLAHIYWDDDKRYSTSLKTRLTISKDTSRNQVVLTMTNMDPVDTATYYCARRETVFYWYFDVWGQGTTVTVSSASTKGPSVFPEAPSSKSTSGGTAALGCLVKDYFPEPVTVSWNSGALTSGVHTFPAVLQSSGLYSLGSVVTVPSSSLGTQTYICNVNHKPSNTKVDKKVEPKSCDKTHTCPPCPAPEAAGAPSVFLFPPKPKDTLMISRTPEVTCVVVDVSHEDPEVKFNWYVDGVEVHNAKTKPREEQYNSTYRVVSVLTVLHQDWLNGKEYKCKVSNKALPAPIEKTISKAKGQPREPQVYTLPPCREEMTKNQVSLSCAVKGFYPSDIAVEWESNGQPENNYKTTPPVLDSDGSFFLVSKLTVDKSRWQQGNVFSCSVLHEALHSHYTQKSLSLSPGK light 1: DIQMTQSPSSLSASVGDRVTITCRASESVDHFGWSLVHWYQQKPGKAPKLLIYRADSLETGVPSRFSGSGSGTDFTLTISSLQPEDFATYYCQQSNEDPWTFGGGTKVEIKRTVAAPSVFIFPPSDEQLKSGTASVSCLLNNFYPREAKVQWKVDNALQSGNSQESVTEQDSKDSTYSLDSTLTLSKADYEKHKVYACEVTHQGLSSPVTKSFNRGEC light 2: DIQMTQSPSSLSASVGDRVTITCRASQSVDEEGDSYMNWYQQKPGKAPKLLIYAASNLESGVPSRFSGSGSGTDFTLTISSLQPEDFATYYCQQSHKDPPTFGGGTKVEIKRTVAAPSVFIFPPSDEQLKSGTASVSCLLNNFYPREAKVQWKVDNALQSGNSQESVTEQDSKDSTYSLKSTLTLSKADYEKHKVYACEVTHQGLSSPVTKSFNRGEC chain 2: EVQLVESGGGLVQPGGSLRLSCAASGFTFSSYWMYWVRQAPGKGLEWVAAITPNAGEDYYPESVKGRFTISRDNAKNSLYLQMNSLRAEDTAVYYCARGHYYYTSYSLGYWGQGTLVTVSSASTKGPSVFPLAPSSKSTSGGTAALGCLVKDYFPEPVTVSWNSGALTSGVHTFPAVLQSSGLYSLSSVVTVPSSSLGTQTYICNVNHKPSNTKVDKKVEPKSC | 182 pM | 20.3 pM | 66.9 pM
